Here are results for 2 molecules from paper PMC11441684, “A suboptimal OCT4-SOX2 binding site facilitates the naïve-state specific function of a Klf4 enhancer”.

In one series the target is OCT4;SOX2 (human;human, UniProt Q01860;P48431 1-360;1-317, |). As to the kind of experiment: EMSA; 19 nM OCT4, 16 nM SOX2; high occupancy; 12.5 mM K-Hepes pH 7.6, 50 mM NaCl, 1 mM MgCl2, 10% glycerol, 0.1% NP-40, 0.1 mg/mL BSA, 1 mM DTT, 1 ug/uL poly dG:dC, 2 nM probe, 30 C 15 min; 4% acrylamide gel, 0.5X TGE. As to conditions: protein: recombinant;recombinant; tags: 6xHis (pSKB3-6H-TEV);6xHis (pSKB3-6H-TEV); copies: 1;1; label: Cy5 on strand 2 (extended primer S1); blunt.

The target of a further series is OCT4 (human, UniProt Q01860 1-360). The series can be described thus: EMSA; 19 nM OCT4; OCT4-only band is the majority of shifted DNA in the OCT4 + SOX2 reaction; 12.5 mM K-Hepes pH 7.6, 50 mM NaCl, 1 mM MgCl2, 10% glycerol, 0.1% NP-40, 0.1 mg/mL BSA, 1 mM DTT, 1 ug/uL poly dG:dC, 2 nM probe, 30 C 15 min; 4% acrylamide gel, 0.5X TGE. As to conditions: protein: recombinant; tags: 6xHis (pSKB3-6H-TEV); label: Cy5 on strand 2 (extended primer S1); blunt.
Chain of OCT4 (Q01860 whole entry): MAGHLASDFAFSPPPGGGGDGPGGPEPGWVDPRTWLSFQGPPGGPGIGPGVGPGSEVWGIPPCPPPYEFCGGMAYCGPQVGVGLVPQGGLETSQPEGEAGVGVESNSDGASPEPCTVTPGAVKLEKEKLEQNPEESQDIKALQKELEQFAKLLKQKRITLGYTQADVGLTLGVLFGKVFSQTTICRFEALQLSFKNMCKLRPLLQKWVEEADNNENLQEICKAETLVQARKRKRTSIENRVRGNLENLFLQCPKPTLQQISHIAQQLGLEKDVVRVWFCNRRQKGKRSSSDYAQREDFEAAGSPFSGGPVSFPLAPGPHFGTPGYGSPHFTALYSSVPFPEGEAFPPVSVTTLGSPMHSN

Chain of OCT4;SOX2 (Q01860 whole entry, chain 1 of 2): as the sequence (Q01860 whole entry) above
Chain of OCT4;SOX2 (P48431 whole entry, chain 2 of 2): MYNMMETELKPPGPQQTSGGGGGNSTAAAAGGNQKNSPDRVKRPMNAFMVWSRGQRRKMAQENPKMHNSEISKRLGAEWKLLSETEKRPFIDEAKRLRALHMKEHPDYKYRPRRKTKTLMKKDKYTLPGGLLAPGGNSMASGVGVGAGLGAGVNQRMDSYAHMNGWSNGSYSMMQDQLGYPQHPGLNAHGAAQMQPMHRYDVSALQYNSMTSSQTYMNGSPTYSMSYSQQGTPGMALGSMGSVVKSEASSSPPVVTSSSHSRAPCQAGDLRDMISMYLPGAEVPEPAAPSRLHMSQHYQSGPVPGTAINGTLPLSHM

B1: Nanog OS site probe (dsDNA)
DNA 1: GTTACTCTGCAGCTACTTTTGCATTACAATGGCCTTGGTGAGACTGG
DNA 2: CCAGTCTCACCAAGGCCATTGTAATGCAAAAGTAGCTGCAGAGTAAC
Consider B1, for which the binding result with OCT4;SOX2 was “binds”.

B2: Klf4-E1 OS site probe (dsDNA)
DNA 1: GTTACTCTGCAGCTACCTTTGCATATCAAATGCCTTGGTGAGACTGG
DNA 2: CCAGTCTCACCAAGGCATTTGATATGCAAAGGTAGCTGCAGAGTAAC
As to B2, the binding result with OCT4 is reported as “binds”.
